In patent US20220325000A1 (SUZHOU ALPHAMAB, published 2022):
Values belong to the binder of their own block, whether it stands above or below them.

Columns and labels:
hTFPI antigen [1] = target: T1, hTFPI antigen (human); experiment: competitive ELISA, FXa coated (competitor), supernatant diluted 100x
T1 construct: Self-made hTFPI used in the hybridoma screens; It may be the same protein as hTFPI161; also called human TFPI; hTFPD
Protocol: (§1) Coat with 2μg/mL FXA Protease (Neb, batch No. 0941404), after blocking with BSA, the same diluted supernatant of TFPI hybridoma cells and 50 ng/mL hTFPD (batch No. TE20140825, self-made) were added for complete incubation, followed by 1:1500 diluted mouse THETM His Tag Antibody [HRP] mAb (GenScript, batch No. 14C000744), after development by TMB, 1 M H2SO4 stop solution was added to stop developing and the value was read on the microplate reader. Using 650 nm as the reference wavelength, the OD values were read at 450 nm and 650 nm. […] The lower the OD value, the better the inhibition of the anti-TFPI antibody.
(§2) Afterwards, the supernatant of 31 7G6 subcloned cells was performed with the inhibition experiment at different dilution ratios, and the experimental method was the same as 1.2.

hTFPI antigen [2] = target: T1, hTFPI antigen; experiment: ELISA, subclone supernatant, hTFPI, OD450
hTFPI antigen [3] = target: T1, hTFPI antigen; experiment: competitive ELISA, FXa coated (competitor), supernatant diluted 10x
Protocol: as §1, §2

hTFPI161-Chis [4] = target: T2, hTFPI161-Chis (human, UniProt P10646 29-189, limits assumed); experiment: BLI, antibody on Protein A biosensor, hTFPI161-Chis 1.875-30 nM, 1:1 model; batch 180727DS
T2 construct: also called human TFPI; not shown: C-terminal His tag ('Chis')
T2 sequence (looked up): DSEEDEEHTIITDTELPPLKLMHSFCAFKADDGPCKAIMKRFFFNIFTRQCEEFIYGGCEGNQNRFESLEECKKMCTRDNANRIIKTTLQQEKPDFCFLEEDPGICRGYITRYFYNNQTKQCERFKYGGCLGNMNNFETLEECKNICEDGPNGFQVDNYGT
Protocol: (§3) In this experiment, the affinity of h7G6 for human TFPI was detected based on Bio-Layer Interferometry (BLI) technology. K2 instrument of Fortibio was used. Firstly, KN057 was diluted to […] and immobilized on Protein A biosensor (model 18-5010), then hTFPI161-Chis was diluted to 30 nM, 15 nM, 7.5 nM, 3.75 nM and 1.875 nm to combine with h7G6, respectively, and the binding signals with different intensities could be detected. The results were fitted using 1:1 model to calculate the equilibrium constant (KD) of the sample.

hTFPI161-Chis [5] = target: T2, hTFPI161-Chis; experiment: BLI, antibody on Protein A biosensor, hTFPI161-Chis 1.875-30 nM, 1:1 model; mean of three batches; average of three batches
Protocol: as §3

hTFPI161-Chis [6] = target: T2, hTFPI161-Chis; experiment: ELISA, hTFPI161 coated, anti-human IgG4-HRP, four-parameter fit
Protocol: hTFPI161 protein was coated on the plate at 0.5 μg/well overnight at 4° C. After washing, the gradient dilution series of h7G6 antibody protein obtained in the above example was added, and incubated at 25° C±2° C. for 2 h. After washing, 1:2000 diluted Mouse Anti-Human IgG4 pFc′ antibody [HP 6023] (HRP) was added at 100 μL/well, and incubated at 25° C.±2° C. for 2 h. After washing, the development solution was added, and the absorbance was read at the wavelength of 450/650 nm. The software SotfMax Pro v5.4 was applied for data processing and mapping analysis, using four-parameter fitting, the binding curve of h7G6 antibody to hTFPI161 and EC50 value were obtained, which reflects the affinity of the antibody for hTFPI161.

hTFPI161-Chis [7] = target: T2, hTFPI161-Chis; experiment: BLI, antibody on Protein A biosensor, hTFPI161-Chis 1.875-30 nM, 1:1 model; batch 180820DS
Protocol: as §3

hTFPI161-Chis [8] = target: T2, hTFPI161-Chis; experiment: competitive ELISA, FXa coated (competitor), 50 ng/mL hTFPI161, anti-His-HRP, four-parameter fit
Protocol: FXa Protease was coated on the plate at 0.2 μg/well overnight at 4° C., after blocking with BSA, the gradient dilution series of hu7G6 antibody protein obtained from the above example was added at 100 uL/well (50 ng/mL hTFPI161 was contained in the dilution), and the reaction was carried out at room temperature for 1 hour. After washing, 1:1500 diluted Mouse THETM His Tag Antibody [HRP] mAb was added, and the reaction was carried out at room temperature for 1 hour. After washing, the development solution was added, and the absorbance was read at the wavelength of 450/650 nm.
The software SotfMax Pro v5.4 was applied for data processing and mapping analysis, using four-parameter fitting, the inhibition curve of h7G6 antibody for FXa-TFPI and EC50 value were obtained. The results were shown in FIG. 3, in which the ordinate was OD450 and the abscissa is the concentration of h7G6 antibody protein (ng/mL); and Hu7G62-v2 antibody protein was effective in inhibiting the interaction between FXA and TFPI.

B1: TFPI-7G6-1C12 (antibody, V domains shown)
VH: QVQLQQSGAELARPGASVKLSCKASGYSFTSYGISWVKQRTGQGLEWIGEIYPRSTNTYYNEKFMGKATLTADKSSSTAFMELRSLTSEDSAVYFCARESFYGDYGAMDFWGQGASVTVSS
VL: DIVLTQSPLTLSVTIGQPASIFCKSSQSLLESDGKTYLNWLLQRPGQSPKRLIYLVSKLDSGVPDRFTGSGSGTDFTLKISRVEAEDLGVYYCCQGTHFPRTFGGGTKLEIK
notes: Subclone supernatant
Inhibition % (hTFPI antigen [1]): 57.9%
OD (hTFPI antigen [2]): 1.24
Inhibition % (hTFPI antigen [3]): 95.2%

B5: Hu7G62-v2 (antibody, human IgG4 S228P, kappa, V domains shown)
VH: QVQLVQSGAEVKKPGASVKVSCKASGYSFTSYGISWVKQAPGQGLEWIGEIYPRSTNTYYNEKFMGKATLTADKSSSTAYMELSSLRSEDTAVYYCARESFYGDYGAMDFWGQGTLVTVSS
VL: DIVMTQSPLSLPVTPGEPASISCKSSQSLLESDGKTYLNWYLQKPGQSPQLLIYLVSKLDSGVPDRFSGSGSGTDFTLKISRVEAEDVGVYYCSQGTHFPRTFGQGTKVEIKR
notes: also called hu7G6-2v2-G4ws; h7G6 antibody
Kd (hTFPI161-Chis [4]): 1.32 nM
Kd (hTFPI161-Chis [5]): 1.37 nM
EC50 (hTFPI161-Chis [6]): 0.0419 µg/mL
Kd (hTFPI161-Chis [7]): 1.47 nM
IC50 (hTFPI161-Chis [8]): 0.222 µg/mL

The next lines start with the values.

Inhibition % (hTFPI antigen [1]): 62.1%
OD (hTFPI antigen [2]): 1.25
Inhibition % (hTFPI antigen [3]): 95.9%
B2: TFPI-7G6-5A10 (antibody, V domains shown)
VH: B1 VH
VL: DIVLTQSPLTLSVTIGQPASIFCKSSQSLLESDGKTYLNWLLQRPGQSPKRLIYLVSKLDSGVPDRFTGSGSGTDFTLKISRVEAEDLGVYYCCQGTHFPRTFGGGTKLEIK
notes: Subclone supernatant

Inhibition % (hTFPI antigen [1]): 55%
OD (hTFPI antigen [2]): 1.35
Inhibition % (hTFPI antigen [3]): 95.1%
B3: TFPI-7G6-5F11 (antibody, V domains shown)
VH: B1 VH
VL: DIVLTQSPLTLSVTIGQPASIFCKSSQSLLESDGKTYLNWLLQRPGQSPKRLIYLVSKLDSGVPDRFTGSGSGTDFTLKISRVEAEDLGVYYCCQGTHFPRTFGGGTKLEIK
notes: Subclone supernatant

Inhibition % (hTFPI antigen [1]): 62.7%
OD (hTFPI antigen [2]): 1.27
Inhibition % (hTFPI antigen [3]): 95.9%
B4: TFPI-7G6-2G8 (antibody, V domains shown)
VH: B1 VH
VL: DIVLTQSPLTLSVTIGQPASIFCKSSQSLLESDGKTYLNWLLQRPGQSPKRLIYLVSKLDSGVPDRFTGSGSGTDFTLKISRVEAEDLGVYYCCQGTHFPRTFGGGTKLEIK
notes: Subclone supernatant
